Measurements taken from the supplement of paper PMC9170038.

Tested on: MS2 coat protein
Test: apparent KD of MS2 coat protein; designed switch direction (-1 OFF switch, 1 ON switch): -1; higher = weaker reporter binding
Procedure, shortened: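 Normalised cluster fluorescence was curve-fitted, and each design's median over clusters is its apparent KD. Before this, SNAP-549-labelled MS2 coat protein was titrated from 0.7 or 1.5 nM, doubling to 3 µM, over RNA switches transcribed on Illumina chips by stalled E. coli RNA polymerase. Titrations had no input, 200 uM small-molecule ligand, or an oligonucleotide input, and steps lasted 0.8–1.5 h (lowest) to 10–20 min (highest).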

[1] = Eterna round: R95, input ligand: microRNA oligo, concentration not stated
[2] = Eterna round: R95, input ligand: FMN 200 uM
[3] = Eterna round: R95, input ligand: none

Sequence	apparent KD of MS2 coat protein (input ligand: FMN 200 uM)	apparent KD of MS2 coat protein (input ligand: none)	apparent KD of MS2 coat protein [1]	further results
UAUAUAUAGUAAGGAUAUGUAUCUAUUUUAUAAACAGAAGGUACUGACAUGAGGAUCACCCAUGUUUUAGUGUGGGCAUGUAGA [JMF's solution 8] (Eterna round: R96, puzzle: Exclusion NG 1)				apparent KD of MS2 coat protein (input ligand: microRNA oligo, concentration not stated): 71.6 nM
UAUAUGUAAGGAUAUCUCGUCAUGGAGGAAACUCCAUGACGAGAGAAGGUACAUGAGGAUCACCCAUGUCUAUU [Mod of Fisker 24 - Jieux - Exclusion 4] (Eterna round: R97, puzzle: Exclusion 4)	117 nM	33.1 nM		
UAUAUGUCAGGAUAUCGCAACUGCGCGCGCAAGAAUCAUAACGAGAAGGGACAUGAGGAUCACCCAUGUACACU [I dont know] (puzzle: Exclusion 4)			18.1 nM	
UAUAUGUCAGGAUAUUGUUAAUUUAGUUGUUUGUAUUAGUUCGAGAAGGGACAUGAGGAUCACCCAUGUUGUUU [Ex4 #57] (Eterna round: R97, puzzle: Exclusion 4)	28.8 nM	29.6 nM		
UAUAUUGGAGGAUAUCUCUCAGUGAACAUGAGGAUCACCCAUGUUGGUGAACGACGGCACAGAGAAGGUCAACGCA [Eternabot (L2) Solution 61] (Eterna round: R97, puzzle: Exclusion 5)	314 nM	499 nM		
UAUCGGCGGACCGAGGCUUUUUGCUCGUCUUAUGCUACAACAUGAGGAUCACCCAUGUGGUGGUGGUCCGUUGUAGU [JL ViennaUCT Bitein mod 9] (puzzle: Sensor v3, turn-off variant 2)			13.5 nM	apparent KD of MS2 coat protein [2]: 19.7 nM; apparent KD of MS2 coat protein [3]: 31.8 nM
UAUGGUAAAGUCAGGAUAUACGUGCAGUUUUCUAGGUAGAAGGGACAUGAGGAUCACCCAUGUAUGGUAGUGUU [Ex4 #46] (Eterna round: R97, puzzle: Brourd's mod of Exclusion 4)	95.1 nM	83.5 nM		
UAUGGUUAAGUCAGGAUAUGCUCGUAGAGGUCUAUGCAGAAGGGACAUGAGGAUCACCCAUGUAUGGUCGUGUU [Ex4 #67] (Eterna round: R97, puzzle: Brourd's mod of Exclusion 4)	161 nM	67 nM		
UAUGUGUCAGGAUAUCGAUUAGAACAGAAUUUAACAAUAGUCGAGAAGGGACAUGAGGAUCACCCAUGUUCAUC [JR_Ex4_Sub022] (Eterna round: R97, puzzle: Exclusion 4)	26.4 nM	18.9 nM		
UAUGUGUCAGGAUAUUAAUUAUAACAGAAUUUAACAAUGAUUAAGAAGGGACAUGAGGAUCACCCAUGUUCAUC [JR_Ex4_Sub024] (Eterna round: R97, puzzle: Exclusion 4)	22.7 nM	20.4 nM		
UAUGUUGUUGUGAGGAUAUACUUUGUUUGACCGUAGUAGAAGGCACAUGAGGAUCACCCAUGUAGAUUUUUGGU [JR_BME4_Sub008] (puzzle: Brourd's mod of Exclusion 4)			9.12 nM	
UAUUAAACAUAGGAUAUCGAAUAAAUCAUUUAACGAGAAGGAUGAACAUGAGGAUCACCCAUGUGGUAUCAUGG [Mat - Exclusion 6 - JL Mod - D14] (puzzle: Exclusion 6)			242 nM	
UAUUAAUGCAAGGAUAUGCUAUUAAUUUUUUUUGCAGAAGGUGCAACAUGAGGAUCACCCAUGUUUGAGGGUAU [JR_E6_Sub029] (puzzle: Exclusion 6)			55.9 nM	
UAUUACAAGCGAAGAUCCCACAUGAGGAUCACCCAUGUGCUCGUCUUAUAAGGUACUGUGACGAAAGUCACGGUACC [Sensor 3, v1 - 91 v16] (Eterna round: R97, puzzle: Sensor, turn-off variant 1)	32.7 nM	31.1 nM		
UAUUAGCAAGCAACUGGGUACAUGAGGAUCACCCAUGUGCUCGUCUUAUAAGGUACUGUGACGAAAGUUACGGUACC [mod--Eli115] (Eterna round: R97, puzzle: Sensor, turn-off variant 1)	17.9 nM	17.4 nM		
UAUUAGCAAGCAAGAUCCCACAUGAGGAUCACCCAUGUGCUCGUCUUAAUUCCAGAAUUACUGGGCUCUCGUCUUAU [JR_STOV1_Sub090] (Eterna round: R97, puzzle: Sensor, turn-off variant 1)	41 nM	40.6 nM		
UAUUAGCAAGCGAGAUCCCACAUGAGGAUCACCCAUGUGCUCGUCUUAUAAAAGACUGUGACGAUAGUCACGGUCAC [Mat - Sensor, turn-off var - Eli Mod - D22] (Eterna round: R97, puzzle: Sensor, turn-off variant 1)	14.2 nM	13.1 nM		
UAUUAGCAAGCGAGAUCCCACAUGAGGAUCACCCAUGUGCUCGUGCAUCCAGAAUUACUGGGUGCUGCUCGUCUUAU [Winner reversed engineered 13] (Eterna round: R97, puzzle: Sensor, turn-off variant 1)	15.2 nM	14.8 nM		

Sequence	apparent KD of MS2 coat protein (input ligand: FMN 200 uM)	apparent KD of MS2 coat protein (input ligand: none)	apparent KD of MS2 coat protein [1]	further results
UAUUAGCAAGUAAGAUCCCACAUGAGGAUCACCCAUGUGCUCGUCAUAUAACGUACUGUGAGGAAACUCACGGUACG [Sensor-V1 #84] (Eterna round: R97, puzzle: Sensor, turn-off variant 1)	85 nM	103 nM		
UAUUAGCUAGGAUAUACAUGAGGAUCACCCAUGUCACGGGUCCACUUGUCCUAUGCGUGUAGAAGGAGCGACCC [JL Ceriza mod 3] (puzzle: Exclusion 3)			20.7 nM	
UAUUAGUAAGGAUAUCUCGUCAUGGACGUGAGUCCAUGACGAGAGAAGGUACAUGAGGAUCACCCAUGUCCAUU [Mod of Fisker 20 - Jieux - Exclusion 4] (Eterna round: R97, puzzle: Exclusion 4)	16.5 nM	14.1 nM		
UAUUAGUGAGGAUAUGGUAAAGAUAAGAUGAUGAAAGAACUCCAGAAGGCACAUGAGGAUCACCCAUGUAGUAG [JL-ex4-2.09 Jieux mod] (puzzle: Exclusion 4)			19.5 nM	
UAUUAUCAAGCUUGAUCCCACAUGAGGAUCACCCAUGUGCUCGUCUUAUUUCUGUCCUUAUUGUUCUCUCGUCUAAU [JR_STOV1_v2_Sub097] (Eterna round: R97, puzzle: Sensor, turn-off variant 1)	80.2 nM	94.1 nM		
UAUUCACAUGAGGAUCACCCAUGUCAGGAUAUAGAAGCGUAGUCCGCAAGAAAGCUUACUAGAAGGGACGUAUU [EX1 B.22] (Eterna round: R97, puzzle: Exclusion 1)	18.8 nM	18.5 nM		
UAUUGCUGAGGAUAUAUAUAGAGCAUUUUCCUCGUGACAGAACAUGAGGAUCACCCAUGUAGAAGGCAGAAGUG [Eternabot (L2) Solution 87] (Eterna round: R97, puzzle: Exclusion 2)	263 nM	192 nM		
UAUUUGUGAGGAUAUGAGUCGUAGAACAAUAGUACUACGUCUCAGAAGGUACAUGAGGAUCACCCAUGUUCCUC [Fiskers Ex 4 Super Stable 44 mod 31] (puzzle: Exclusion 4)			18.4 nM	
UAUUUUGCAAGCAGAUCCCACAUGAGGAUCACCCAUGUGCUCGUCUUAUAAGGUUCUGUGACGAUAGUCACGGUACC [mod -Eli mod] (Eterna round: R97, puzzle: Sensor, turn-off variant 1)	45.9 nM	46.1 nM		
UCAAGUAUGUAGGAUAUCGAUGUCUGCGGACAUCGAGAAGGACGUACAUGAGGAUCACCCAUGUAACUUGCAUG [Exclusion 6 - B - 10:c] (puzzle: Exclusion 6)			70.9 nM	
UCAAGUUUUUUGUUUUUUAACAUGAGGAUCACCCAUGUAUUUUUAUAGUAUGUGUGAAUAAGAUCUCGUGGUCUUAU [JR_SV3TOV1_Sub099] (puzzle: Sensor v3, turn-off variant 1)			78.1 nM	apparent KD of MS2 coat protein [2]: 31.8 nM; apparent KD of MS2 coat protein [3]: 36.5 nM
UCAGGCUAUUAAACCGCCGACAUGAGGAUCACCCAUGUACUUCAUGCGCUAGCUUGCUCGUCUACCUCAAGGAUCCG [Eternabot (L2) Solution 24] (Eterna round: R97, puzzle: Sensor, turn-off variant 1)	67.7 nM	68.6 nM		
UCCAGCAUACGGAGAUCCAACAUGAGGAUCACCCAUGUCUGGAAAGCUUUUUGCUUGUCUUAUCCGUCUCUGUGUGU [Design #7] (Eterna round: R97, puzzle: Sensor, turn-off variant 1)	32.7 nM	35.8 nM		
UCCUCACAUGAGGAUCACCCAUGUCAGGAUAUCCAACAUGCUCCCAAAACCACGCAUCGGAGAAGGGACAUGCA [EX1 A.6] (Eterna round: R97, puzzle: Exclusion 1)	21.7 nM	17.7 nM		
UCCUCACAUGAGGAUCACCCAUGUUAGGAUAUCUUAGAGCGCGAAUGACAGUUCUUUAAGAGAAGGAACUGGGC [Exclusion 1 (MOD1.2 of Edarti)] (Eterna round: R97, puzzle: Exclusion 1)	50.5 nM	20.1 nM		
UCCUUAUCGGUCAGGAUAUACACCCGUUUCUCCUUGUAGAAGGGACAUGAGGAUCACCCAUGUACAGUACAUUU [alecazam66] (Eterna round: R97, puzzle: Brourd's mod of Exclusion 4)	29.6 nM	26.8 nM		
UCGAGGUCAGGAUAUACAUGAGGAUCACCCAUGUGGAAGUAAGGUAGGAGAAGAGUAGGUAGAAGGGACGAGAG [JR_Exclu3_Sub050] (puzzle: Exclusion 3)			30.8 nM	
UCGCUGCGAGGAUAUACGUGCGCGCGCGCGCGCGCGCGCGUACAUGAGGAUCACCCAUGUAGAAGGCGCGCUGC [Apr-15 SS2-1] (puzzle: Exclusion 2)			12.5 nM	
